Numbering of substitutions follows the chain as printed. Names and notes keep the numbering of the source.
T1: HAdV-C5 hexon labeled with AlexaFluor594 (human adenovirus C5 (HAdV-C5), UniProt P04133 1-952, AlexaFluor594 label (sites not given))
T1 chain: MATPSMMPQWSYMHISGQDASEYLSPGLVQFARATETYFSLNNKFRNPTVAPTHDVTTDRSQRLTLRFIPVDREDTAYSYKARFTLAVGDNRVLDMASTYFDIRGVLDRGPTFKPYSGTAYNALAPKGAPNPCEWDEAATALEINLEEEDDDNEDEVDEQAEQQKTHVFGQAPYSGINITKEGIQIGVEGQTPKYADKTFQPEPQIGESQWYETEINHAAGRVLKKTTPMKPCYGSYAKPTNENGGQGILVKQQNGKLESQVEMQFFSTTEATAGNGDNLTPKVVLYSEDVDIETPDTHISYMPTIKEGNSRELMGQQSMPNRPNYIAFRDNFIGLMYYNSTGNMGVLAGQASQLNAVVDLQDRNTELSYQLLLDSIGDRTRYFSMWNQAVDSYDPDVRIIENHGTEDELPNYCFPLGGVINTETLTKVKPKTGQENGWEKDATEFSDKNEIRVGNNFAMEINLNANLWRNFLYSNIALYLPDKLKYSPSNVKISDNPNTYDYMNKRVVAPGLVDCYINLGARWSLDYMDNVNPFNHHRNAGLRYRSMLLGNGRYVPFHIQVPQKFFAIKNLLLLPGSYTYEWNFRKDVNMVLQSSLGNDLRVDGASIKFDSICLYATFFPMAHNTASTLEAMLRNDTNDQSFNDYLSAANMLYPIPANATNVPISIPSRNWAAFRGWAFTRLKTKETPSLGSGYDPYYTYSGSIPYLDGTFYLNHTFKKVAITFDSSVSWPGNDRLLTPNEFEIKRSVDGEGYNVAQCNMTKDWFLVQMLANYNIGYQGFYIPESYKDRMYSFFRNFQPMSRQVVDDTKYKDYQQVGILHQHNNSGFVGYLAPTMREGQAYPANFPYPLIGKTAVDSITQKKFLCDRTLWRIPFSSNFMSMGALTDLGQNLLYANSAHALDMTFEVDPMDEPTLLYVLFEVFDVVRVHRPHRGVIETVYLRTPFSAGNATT

B1: hLF mut3 (K28A) (natural protein)
chain: GRRRSVQWCAVSQPEATKCFQWQRNMRAVRGPPVSCIKRDSPIQCIQAIAENRADAVTLDGGFIYEAGLAPYKLRPVAAEVYGTERQPRTHYYAVAVVKKGGSFQLNELQGLKSCHTGLRRTAGWNVPIGTLRPFLNWTGPPEPIEAAVARFFSASCVPGADKGQFPNLCRLCAGTGENKCAFSSQEPYFSYSGAFKCLRDGAGDVAFIRESTVFEDLSDEAERDEYELLCPDNTRKPVDKFKDCHLARVPSHAVVARSVNGKEDAIWNLLRQAQEKFGKDKSPKFQLFGSPSGQKDLLFKDSAIGFSRVPPRIDSGLYLGSGYFTAIQNLRKSEEEVAARRARVVWCAVGEQELRKCNQWSGLSEGSVTCSSASTTEDCIALVLKGEADAMSLDGGYVYTAGKCGLVPVLAENYKSQQSSDPDPNCVDRPVEGYLAVAVVRRSDTSLTWNSVKGKKSCHTAVDRTAGWNIPMGLLFNQTGSCKFDEYFSQSCAPGSDPRSNLCALCIGDEQGENKCVPNSNERYYGYTGAFRCLAENAGDVAFVKDVTVLQNTDGNNNEAWAKDLKLADFALLCLDGKRKPVTEARSCHLAMAPNHAVVSRMDKVERLKQVLLHQQAKFGRNGSDCPDKFCLFQSETKNLLFNDNTECLARLHGKTTYEKYLGPQYVAGITNLKKCSTSPLLEACEFLRK
B2: hLF mut7 (N673A/S678A) (natural protein)
chain: B1 chain with A28K, N673A, S678A
B3: hLF mut1 (R24S) (natural protein)
chain: B1 chain with R24S, A28K
B4: hLF mut8 (E687A/K691A) (natural protein)
chain: B1 chain with A28K, E687A, K691A
B5: hLF mut4 (R30A) (natural protein)
chain: B1 chain with A28K, R30A
B6: hLF mut5 (R24S/R27A/K28A/R30A) (natural protein)
chain: B1 chain with R24S, R27A, R30A
B7: human lactoferrin (hLF), wild type (natural protein)
chain: B1 chain with A28K
B8: hLF mut2 (R27A) (natural protein)
chain: B1 chain with R27A, A28K
B9: hLF mut6 (K277S/K280A/K285S) (natural protein)
chain: B1 chain with A28K, K277S, K280A, K285S

Biological target: T1, HAdV-C5 hexon labeled with AlexaFluor594
Test: MST

| Binder | Kd [nM] |
| --- | --- |
| B1 | 125 |
| B2 | 207 |
| B3 | 247 |
| B4 | 370 |
| B5 | 207 |
| B6 | 602 |
| B7 | 117 |
| B8 | 167 |
| B9 | 584 |

— publication PMC10949841 (2024)
